Data reported in patent publication US20190092827A1 (University of Texas, published 2019).

Target: the molecule itself
Test: solution NMR spectroscopy, monomer-dimer equilibrium (homodimerisation)

B1: WT MIP-2 (chemokine CXCL2, also known as MIP-2 in mice) (ligand, mouse, UniProt P10889 28-100, looked up)
chain: AVVASELRCQCLKTLPRVDFKNIQSLSVTPPGPHCAQTEVIATLKGGQKVCLDPEAPLVQKIIQKILNKGKAN
notes: also called native MIP-2; wild-type (WT) chemokine
B1 showed a Kd of 10 µM.
